Source: patent publication US20230272011A1 (AVACTA LIFE SCIENCES, published 2023)

Experiments:
mouse serum albumin [1] = molecular target: T1, mouse serum albumin (mouse, UniProt P07724 25-608); assay: Octet biolayer interferometry, pH 6.0
T1 construct: also called MSA
Protocol: (§1) Biotinylated antigen was captured onto SA sensors at 1 μg/ml for 600 seconds in a buffer comprising PBS-T (0.01% Tween 20)+1% casein at either pH 6.0 or 7.4. Association was carried out for 300 seconds and dissociation for 600 seconds, and regeneration was performed using 10 mM glycine pH 1.5 (GE Healthcare) for 3×5 seconds. All steps were carried out at 1000 rpm and 25° C. Purified AFFIMER® polypeptide in two-fold serial dilutions was analyzed at a starting concentration of approximately 10× K_{D value}. Kinetics analyses were carried out using the Octet data analysis software, subtracting the reference sensor (loaded with antigen), aligning the Y-axis to baseline, and using inter-step correction to align association to dissociation. Savitzky-Golay filtering was applied and the data processed. Analysis of the data was carried out with a 1:1 model, global fit, Rₘₐₓ unlinked by sensor.
(§2) AFFIMER® polypeptides were incubated with AcTEV for 1 hour at 30° C. as recommend by the manufacturer (Invitrogen) and removal of cleaved His tag by binding NiNTA resin (Generon) and collecting the cleaved protein flow through. […] Pharmacokinetic profile of IV-injected His tag cleaved AFFIMER® protein compared to C-terminally His-tagged AFFIMER® protein was evaluated.

cynomolgus serum albumin [2] = molecular target: T2, cynomolgus serum albumin (cynomolgus); assay: Octet biolayer interferometry, pH 6.0
T2 construct: also called CSA; cyno serum albumin
T2 sequence (A2V9Z4 25-608): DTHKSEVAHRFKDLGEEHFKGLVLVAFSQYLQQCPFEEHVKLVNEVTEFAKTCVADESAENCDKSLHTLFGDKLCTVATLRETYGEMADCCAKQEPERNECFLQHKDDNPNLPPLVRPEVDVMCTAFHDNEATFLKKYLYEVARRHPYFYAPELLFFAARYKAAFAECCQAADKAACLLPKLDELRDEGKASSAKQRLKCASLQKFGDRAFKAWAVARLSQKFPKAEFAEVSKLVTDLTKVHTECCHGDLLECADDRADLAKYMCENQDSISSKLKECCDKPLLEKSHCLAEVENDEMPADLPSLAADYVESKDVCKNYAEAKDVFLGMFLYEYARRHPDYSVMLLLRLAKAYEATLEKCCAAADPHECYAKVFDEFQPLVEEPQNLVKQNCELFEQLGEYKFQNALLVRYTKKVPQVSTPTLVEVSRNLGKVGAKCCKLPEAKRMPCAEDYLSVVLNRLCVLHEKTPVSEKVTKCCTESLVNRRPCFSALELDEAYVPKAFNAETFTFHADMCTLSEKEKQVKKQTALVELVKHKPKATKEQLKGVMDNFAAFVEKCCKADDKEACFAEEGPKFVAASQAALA
Protocol: as §1, §2

human serum albumin [3] = molecular target: T3, human serum albumin (human, UniProt P02768 25-609); assay: Octet biolayer interferometry, pH 6.0
T3 construct: mature; Bought protein; biotinylated in the Octet and HTRF assays; also called HSA; HuSA
Protocol: as §1, §2

mouse serum albumin [4] = molecular target: T1, mouse serum albumin; assay: Octet biolayer interferometry, pH 7.4
Protocol: as §1, §2

cynomolgus serum albumin [5] = molecular target: T2, cynomolgus serum albumin; assay: Octet biolayer interferometry, pH 7.4
Protocol: as §1, §2

human serum albumin [6] = molecular target: T3, human serum albumin; assay: Octet biolayer interferometry, pH 7.4
Protocol: as §1, §2

[7] = molecular target: T4, human PD-L1-Fc (R&D Systems) chimeric protein (human, UniProt Q9NZQ7 19-239); assay: Biacore single cycle kinetics on human PD-L1 Fc
T4 construct: Bought reagent; also called rhPD-L1-Fc; huPD-L1; Fc part of the bought chimera not given, not described
T4 sequence (Q9NZQ7 19-239, change not shown): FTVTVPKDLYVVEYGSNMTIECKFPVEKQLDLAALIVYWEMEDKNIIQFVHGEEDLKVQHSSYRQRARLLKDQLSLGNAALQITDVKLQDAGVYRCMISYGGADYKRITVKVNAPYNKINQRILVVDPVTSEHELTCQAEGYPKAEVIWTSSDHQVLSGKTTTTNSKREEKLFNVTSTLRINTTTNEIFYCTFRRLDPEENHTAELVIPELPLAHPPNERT

human serum albumin [8] = molecular target: T3, human serum albumin; assay: Biacore, immobilised HSA, running buffer pH 7.4
Protocol: (§3) Affinities for mouse, human, and cynomolgus serum were also measured at pH 7.4 for four (4) AFFIMER® binders using surface plasmon resonance (SPR) (FIG. 5, Table 5). […] A concentration titration of AFFIMER® monomers was run as analyte at a flow rate of 30 μl/min or 60 μl/min. Fc2-1, Fc3-1 and Fc4-1 kinetic data was blank subtracted and fit to a 1:1 Langmuir binding model (BIAcore Evalution software; GE) to calculate KD values.

mouse serum albumin [9] = molecular target: T1, mouse serum albumin; assay: Biacore, immobilised MSA, pH 6.0
Description: (§4) […] Fc2-1, Fc3-1 and Fc4-1 kinetic data was blank subtracted and fit to a 1:1 Langmuir binding model (BIAcore Evalution software; GE) to calculate KD values.

human serum albumin [10] = molecular target: T3, human serum albumin; assay: binding ELISA on coated HSA, pH 7.4
Protocol: (§5) After saturation with 5% PBS Casein pH 7.5, plates were washed and a dilution of AFFIMER® trimers or controls were incubated on the plate for 90 minutes. Plates were then washed, and a biotinylated polyclonal antibody anti-cystatin A (R&D Systems) was added for 1 hour. Plates were washed and AFFIMER® ILFs were detected using streptavidin-HRP. After a last washing step, TMB was added for the development of the experiment, and the plates were read at 450 nm.

human serum albumin [11] = molecular target: T3, human serum albumin; assay: Biacore, immobilised HSA, running buffer pH 6.0
Description: as §4

mouse serum albumin [12] = molecular target: T1, mouse serum albumin; assay: binding ELISA on coated MSA, pH 7.4
Protocol: as §5

mPD-L1 = molecular target: T5, mPD-L1 (mouse, UniProt Q9EP73 19-238, limits assumed); assay: competition ELISA: mPD-L1 pre-incubated with the AFFIMER polypeptide and added to coated mPD-1; blocked ligand mPD-1
T5 construct: May be the same reagent as the mouse PD-L1-Fc of the Biacore run
T5 sequence (Q9EP73 19-238 limits assumed): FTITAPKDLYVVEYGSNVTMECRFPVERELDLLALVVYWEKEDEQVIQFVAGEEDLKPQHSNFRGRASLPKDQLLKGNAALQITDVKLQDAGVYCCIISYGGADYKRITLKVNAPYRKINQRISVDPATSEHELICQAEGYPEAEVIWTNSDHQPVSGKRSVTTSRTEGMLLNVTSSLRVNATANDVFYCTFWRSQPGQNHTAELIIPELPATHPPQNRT
Protocol: Briefly, PD-1 was coated overnight on the plate at 1 μg/ml in carbonate buffer. Then plates were saturated using 5% Casein/PBS buffer. […] After saturation, the mix was added to the plates and incubated for 90 minutes. Plates were then washed and the detection polyclonal antibody, biotinylated anti-PD-L1, was added. After washing the plates, streptavidin-HRP was added for 30 minutes. After a final wash, development of the reaction was performed using TMB (Pierce) and the plates were read using a plate reader at 450 nm (FIG. 26C).

canine serum albumin [13] = molecular target: T6, canine serum albumin (canine, UniProt P49822 25-608); assay: binding ELISA on coated albumin, pH 6.0, panel 'Canine SA Binding at pH 6.0'
T6 sequence (P49822 25-608 limits assumed): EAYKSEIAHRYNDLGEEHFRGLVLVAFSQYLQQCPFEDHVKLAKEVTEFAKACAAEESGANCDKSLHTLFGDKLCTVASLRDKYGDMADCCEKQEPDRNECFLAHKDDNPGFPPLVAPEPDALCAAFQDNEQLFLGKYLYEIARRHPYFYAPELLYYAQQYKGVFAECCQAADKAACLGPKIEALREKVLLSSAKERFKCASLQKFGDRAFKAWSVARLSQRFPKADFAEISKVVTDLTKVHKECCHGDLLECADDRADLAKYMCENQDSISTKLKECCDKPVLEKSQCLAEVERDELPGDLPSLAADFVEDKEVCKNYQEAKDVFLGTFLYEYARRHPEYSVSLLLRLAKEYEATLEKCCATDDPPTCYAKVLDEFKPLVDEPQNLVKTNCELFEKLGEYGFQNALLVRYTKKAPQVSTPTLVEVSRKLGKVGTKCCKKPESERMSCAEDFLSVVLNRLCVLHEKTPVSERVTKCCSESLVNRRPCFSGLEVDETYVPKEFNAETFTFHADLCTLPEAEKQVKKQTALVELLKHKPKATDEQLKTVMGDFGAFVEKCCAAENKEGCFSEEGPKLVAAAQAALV
Protocol: (§6) Briefly, ELISA was performed as follow:
(§7) Human (Sigma-Aldrich); Cynomolgus and Mouse (Abcam); Equine (Abcam); Canine (Abcam); Mouse (Sigma-Aldrich); Rabbit (Sigma-Aldrich); Porcine (Sigma-Aldrich);, and Rat (Sigma-Aldrich) serum albumin were coated overnight on 96 well plates (Corning Costar) at 1 μg/ml in PBS at the appropriate pH (pH 6.0 or 7.4). Plates were saturated using 5% Casein (Sigma-Aldrich) buffer in PBS. […] Plates were then washed and AFFIMER® proteins were detected using a biotinylated polyclonal antibody anti-Cystatin (R&D System) for 90 minutes. After washing, streptavidin-HRP (Thermo Fisher Scientific) was added and incubated for 30 minutes.

equine serum albumin = equine serum albumin (equine, UniProt P35747 25-607); assay: binding ELISA, coated albumin, pH 7.4
Chain of equine serum albumin (P35747 25-607 limits assumed): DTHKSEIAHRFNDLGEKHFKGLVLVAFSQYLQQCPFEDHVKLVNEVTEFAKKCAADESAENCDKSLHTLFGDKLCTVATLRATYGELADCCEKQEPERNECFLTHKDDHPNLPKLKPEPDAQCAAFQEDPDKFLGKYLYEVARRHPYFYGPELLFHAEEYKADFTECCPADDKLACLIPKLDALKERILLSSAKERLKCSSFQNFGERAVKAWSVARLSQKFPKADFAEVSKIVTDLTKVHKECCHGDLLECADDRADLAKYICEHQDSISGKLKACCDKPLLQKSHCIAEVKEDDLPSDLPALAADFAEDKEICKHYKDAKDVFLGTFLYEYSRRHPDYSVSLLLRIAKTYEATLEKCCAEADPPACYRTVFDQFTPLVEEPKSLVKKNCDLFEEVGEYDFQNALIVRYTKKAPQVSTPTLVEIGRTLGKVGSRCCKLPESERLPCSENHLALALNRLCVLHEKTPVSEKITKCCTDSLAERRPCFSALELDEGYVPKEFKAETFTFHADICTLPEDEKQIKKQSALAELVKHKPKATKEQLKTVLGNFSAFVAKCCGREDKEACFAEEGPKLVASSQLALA
Protocol: as §6, §7

cynomolgus serum albumin [14] = molecular target: T2, cynomolgus serum albumin; assay: binding ELISA, coated albumin, pH 7.4
Protocol: as §6, §7

human serum albumin [15] = molecular target: T3, human serum albumin; assay: binding ELISA, coated albumin, pH 7.4
Protocol: as §6, §7

canine serum albumin [16] = molecular target: T6, canine serum albumin; assay: binding ELISA, coated albumin, pH 7.4
Protocol: as §6, §7

rabbit serum albumin = rabbit serum albumin (rabbit, UniProt P49065 25-608); assay: binding ELISA, coated albumin, pH 7.4
Chain of rabbit serum albumin (P49065 25-608 limits assumed): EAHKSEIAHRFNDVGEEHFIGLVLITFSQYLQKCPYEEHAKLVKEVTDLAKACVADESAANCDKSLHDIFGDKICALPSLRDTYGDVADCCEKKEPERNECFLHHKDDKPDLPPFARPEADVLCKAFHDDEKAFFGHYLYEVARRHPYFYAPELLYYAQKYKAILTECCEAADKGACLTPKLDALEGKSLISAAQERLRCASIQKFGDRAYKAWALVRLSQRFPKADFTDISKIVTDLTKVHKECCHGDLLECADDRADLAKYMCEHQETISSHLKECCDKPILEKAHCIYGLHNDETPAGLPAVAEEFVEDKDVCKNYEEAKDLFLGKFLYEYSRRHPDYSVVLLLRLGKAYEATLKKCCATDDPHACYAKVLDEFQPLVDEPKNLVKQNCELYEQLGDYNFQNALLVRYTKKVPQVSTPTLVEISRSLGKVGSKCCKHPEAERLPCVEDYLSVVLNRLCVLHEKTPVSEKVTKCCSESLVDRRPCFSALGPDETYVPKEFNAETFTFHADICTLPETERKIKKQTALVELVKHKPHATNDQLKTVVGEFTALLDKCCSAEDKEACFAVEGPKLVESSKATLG
Protocol: as §6, §7

porcine serum albumin = porcine serum albumin (porcine, UniProt P08835 25-607); assay: binding ELISA, coated albumin, pH 7.4
Chain of porcine serum albumin (P08835 25-607 limits assumed): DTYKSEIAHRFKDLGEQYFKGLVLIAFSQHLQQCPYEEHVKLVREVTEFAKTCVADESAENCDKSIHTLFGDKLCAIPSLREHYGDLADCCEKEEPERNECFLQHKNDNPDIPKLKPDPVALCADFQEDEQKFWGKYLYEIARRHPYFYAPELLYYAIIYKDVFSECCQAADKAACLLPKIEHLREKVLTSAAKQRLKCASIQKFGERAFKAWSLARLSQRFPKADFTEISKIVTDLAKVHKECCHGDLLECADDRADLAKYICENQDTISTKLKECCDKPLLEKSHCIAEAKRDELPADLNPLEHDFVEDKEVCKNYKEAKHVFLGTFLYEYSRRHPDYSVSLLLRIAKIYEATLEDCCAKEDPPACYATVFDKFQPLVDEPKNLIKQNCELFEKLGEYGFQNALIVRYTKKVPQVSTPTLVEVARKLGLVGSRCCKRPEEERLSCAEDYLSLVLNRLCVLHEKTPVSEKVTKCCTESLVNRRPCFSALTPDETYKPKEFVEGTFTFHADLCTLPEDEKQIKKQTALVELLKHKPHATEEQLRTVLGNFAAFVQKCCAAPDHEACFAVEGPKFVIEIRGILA
Protocol: as §6, §7

rat serum albumin = rat serum albumin (rat, UniProt P02770 25-608); assay: binding ELISA, coated albumin, pH 7.4
Chain of rat serum albumin (P02770 25-608 limits assumed): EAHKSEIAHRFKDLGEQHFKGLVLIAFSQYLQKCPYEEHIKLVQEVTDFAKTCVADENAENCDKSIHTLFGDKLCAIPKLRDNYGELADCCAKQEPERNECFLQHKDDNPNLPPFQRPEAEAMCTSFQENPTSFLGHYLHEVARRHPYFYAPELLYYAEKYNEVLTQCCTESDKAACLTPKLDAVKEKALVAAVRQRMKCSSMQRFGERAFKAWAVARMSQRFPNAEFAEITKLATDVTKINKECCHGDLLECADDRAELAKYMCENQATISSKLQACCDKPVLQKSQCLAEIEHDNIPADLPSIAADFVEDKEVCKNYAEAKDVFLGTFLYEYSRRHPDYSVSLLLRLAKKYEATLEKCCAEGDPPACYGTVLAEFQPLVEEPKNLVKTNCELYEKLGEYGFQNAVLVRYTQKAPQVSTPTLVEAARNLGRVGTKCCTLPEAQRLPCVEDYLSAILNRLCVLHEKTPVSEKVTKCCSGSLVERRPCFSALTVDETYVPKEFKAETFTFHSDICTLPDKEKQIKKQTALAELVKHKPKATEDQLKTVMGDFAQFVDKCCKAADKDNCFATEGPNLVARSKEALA
Protocol: as §6, §7

mouse serum albumin [17] = molecular target: T1, mouse serum albumin; assay: BLI (Octet), biotinylated albumin on SA sensor, pH 6.0
Protocol: as §1

cynomolgus serum albumin [18] = molecular target: T2, cynomolgus serum albumin; assay: as above
Protocol: as §1

human serum albumin [19] = molecular target: T3, human serum albumin; assay: as above
Protocol: as §1

human serum albumin [20] = molecular target: T3, human serum albumin; assay: binding ELISA on coated albumin, pH 6.0, panel 'HSA Binding at pH 6.0'
Protocol: as §6, §7

mouse serum albumin [21] = molecular target: T1, mouse serum albumin; assay: Octet biolayer interferometry, biotinylated albumin on SA sensors, pH 6.0
Protocol: as §1

cynomolgus serum albumin [22] = molecular target: T2, cynomolgus serum albumin; assay: as above
Protocol: as §1

human serum albumin [23] = molecular target: T3, human serum albumin; assay: as above
Protocol: as §1

mouse serum albumin [24] = molecular target: T1, mouse serum albumin; assay: Octet biolayer interferometry, biotinylated albumin on SA sensors, pH 7.4
Protocol: as §1

cynomolgus serum albumin [25] = molecular target: T2, cynomolgus serum albumin; assay: as above
Protocol: as §1

human serum albumin [26] = molecular target: T3, human serum albumin; assay: as above
Protocol: as §1

mouse serum albumin [27] = molecular target: T1, mouse serum albumin; assay: SPR (Biacore T200), albumin amine-coupled to CM5, Affimer analyte, pH 7.4
Protocol: as §3

cynomolgus serum albumin [28] = molecular target: T2, cynomolgus serum albumin; assay: as above
Protocol: as §3

human serum albumin [29] = molecular target: T3, human serum albumin; assay: as above
Protocol: as §3

mouse serum albumin [30] = molecular target: T1, mouse serum albumin; assay: BLI (Octet), biotinylated albumin on SA sensor, pH 7.4
Protocol: as §1

cynomolgus serum albumin [31] = molecular target: T2, cynomolgus serum albumin; assay: as above
Protocol: as §1

human serum albumin [32] = molecular target: T3, human serum albumin; assay: as above
Protocol: as §1

T1 sequence (P07724 25-608 limits assumed): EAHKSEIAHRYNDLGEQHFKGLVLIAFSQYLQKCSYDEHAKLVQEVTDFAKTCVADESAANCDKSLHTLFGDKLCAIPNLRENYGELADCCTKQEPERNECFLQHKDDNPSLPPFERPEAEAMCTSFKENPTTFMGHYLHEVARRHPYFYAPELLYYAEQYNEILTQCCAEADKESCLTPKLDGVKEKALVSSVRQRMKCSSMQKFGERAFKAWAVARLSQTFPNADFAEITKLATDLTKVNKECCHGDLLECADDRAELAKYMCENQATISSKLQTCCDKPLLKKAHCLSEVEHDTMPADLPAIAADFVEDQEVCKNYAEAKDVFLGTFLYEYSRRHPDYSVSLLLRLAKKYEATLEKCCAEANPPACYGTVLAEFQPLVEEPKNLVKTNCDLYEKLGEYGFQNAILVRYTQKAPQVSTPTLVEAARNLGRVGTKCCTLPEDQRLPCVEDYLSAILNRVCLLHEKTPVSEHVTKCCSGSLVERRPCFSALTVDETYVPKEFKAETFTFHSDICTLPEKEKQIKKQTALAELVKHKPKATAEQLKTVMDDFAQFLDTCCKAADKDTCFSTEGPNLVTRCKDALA

B1: HSA-41, C-terminal 6x His tag cleaved (designed binder)
chain: MIPRGLSEAKPATPEIQEIVDKVKPQLEEKTNETYGKLEAVQYKTQVLANFFQRRWPGSTNYYIKVRAGDNKYMHLKVFNGPWKFRNTDRGADRVLTGYQVDKNKDDELTGFEQKLISEEDL
notes: also called His tag cleaved AFFIMER protein; C-terminally His tag cleaved AFFIMER lead clone
A Kd (mouse serum albumin [1]) of 0.0381 µM, a Kd (cynomolgus serum albumin [2]) of 0.189 µM and a Kd (human serum albumin [3]) of 0.00471 µM were found for B1 in this work. The Kd (mouse serum albumin [4]) was 0.104 µM, the Kd (cynomolgus serum albumin [5]) was 0.28 µM and the Kd (human serum albumin [6]) was 0.00765 µM.

B2: AVA04-251 XT60 (designed binder)
chain: MIPRGLSEAKPATPEIQEIVDKVKPQLEEKTNETYGKLEAVQYKTQVLAREGRQDWVLSTNYYIKVRAGDNKYMHLKVFNGPWVPFPHQQLADRVLTGYQVDKNKDDELTGFAEAAAKEAAAKEAAAKEAAAKEAAAKEAAAKMIPRGLSEAKPATPEIQEIVDKVKPQLEEKTNETYGKLEAVQYKTQVLAREGRQDWVLSTNYYIKVRAGDNKYMHLKVFNGPWVPFPHQQLADRVLTGYQVDKNKDDELTGFAEAAAKEAAAKEAAAKEAAAKEAAAKEAAAKMIPRGLSEAKPATPEIQEIVDKVKPQLEEKTNETYGKLEAVQYKTQVLADWWQAKWPHSTNYYIKVRAGDNKYMHLKVFNGPYKVHQSSGGADRVLTGYQVDKNKDDELTGFHHHHHH
A Kd [7] of 0.000558 µM, a koff [7] of 0.000331 s⁻¹ and a kon [7] of 594000 M⁻¹ s⁻¹ were found for B2 in this work. For the same binder, the Kd (human serum albumin [8]) was 0.661 µM, the koff (human serum albumin [8]) was 0.00846 s⁻¹ and the kon (human serum albumin [8]) was 12800 M⁻¹ s⁻¹. The Kd (mouse serum albumin [9]) was 0.108 µM, the koff (mouse serum albumin [9]) was 0.0326 s⁻¹ and the kon (mouse serum albumin [9]) was 301000 M⁻¹ s⁻¹. The EC50 (human serum albumin [10]) was 0.0057 µM, the Kd (human serum albumin [11]) was 0.0678 µM and the koff (human serum albumin [11]) was 0.00339 s⁻¹. It also gave a kon (human serum albumin [11]) of 50100 M⁻¹ s⁻¹ and an EC50 (mouse serum albumin [12]) of 0.134 µM.

B3: AVA04-182 (designed binder)
chain: MIPRGLSEAKPATPEIQEIVDKVKPQLEEKTNETYGKLEAVQYKTQVLAFALPEFEYMSTNYYIKVRAGDNKYMHLKVFNGPPMIRRKNEVADRVLTGYQVDKNKDDELTGF
notes: also called its control
An IC50 (mPD-L1) of 0.112 µM was found for B3 in this work.

B4: HSA-36 (designed binder)
chain: MIPRGLSEAKPATPEIQEIVDKVKPQLEEKTNETYGKLEAVQYKTQVLAGHYARYWPGSTNYYIKVRAGDNKYMHLKVFNGPWAQKSKVHQADRVLTGYQVDKNKDDELTGFHHHHHH
With B4 the “EC50 (read off the curve)” value (canine serum albumin [13]) was about 0.2 µM, the EC50 (equine serum albumin) was 0.662 µM and the EC50 (cynomolgus serum albumin [14]) was 0.447 µM. For the same binder, the EC50 (human serum albumin [15]) was 0.687 µM, the EC50 (canine serum albumin [16]) was 0.383 µM and the EC50 (rabbit serum albumin) was 0.863 µM. For the same binder, the EC50 (porcine serum albumin) was 0.268 µM, the EC50 (rat serum albumin) was 0.00973 µM and the Kd (mouse serum albumin [17]) was 0.435 µM. For the same binder, the Kd (cynomolgus serum albumin [18]) was 1.14 µM, the Kd (human serum albumin [19]) was 0.132 µM and the “EC50 (read off the curve)” value (human serum albumin [20]) was about 0.4 µM. For the same binder, the koff (mouse serum albumin [21]) was 0.0874 s⁻¹, the kon (mouse serum albumin [21]) was 200000 M⁻¹ s⁻¹ and the koff (cynomolgus serum albumin [22]) was 0.0123 s⁻¹. It also gave a kon (cynomolgus serum albumin [22]) of 10800 M⁻¹ s⁻¹, a koff (human serum albumin [23]) of 0.00175 s⁻¹ and a kon (human serum albumin [23]) of 15400 M⁻¹ s⁻¹. For the same binder, the kon (mouse serum albumin [24]) was 215000 M⁻¹ s⁻¹, the koff (cynomolgus serum albumin [25]) was 0.0505 s⁻¹ and the koff (human serum albumin [26]) was 0.00257 s⁻¹. For the same binder, the kon (human serum albumin [26]) was 18900 M⁻¹ s⁻¹, the Kd (mouse serum albumin [27]) was 0.207 µM and the koff (mouse serum albumin [27]) was 0.15 s⁻¹. For the same binder, the kon (mouse serum albumin [27]) was 726000 M⁻¹ s⁻¹, the Kd (cynomolgus serum albumin [28]) was 1.51 µM and the koff (cynomolgus serum albumin [28]) was 0.16 s⁻¹. For the same binder, the kon (cynomolgus serum albumin [28]) was 106000 M⁻¹ s⁻¹, the Kd (human serum albumin [29]) was 0.2 µM and the koff (human serum albumin [29]) was 0.00451 s⁻¹. It also gave a kon (human serum albumin [29]) of 22500 M⁻¹ s⁻¹, a Kd (mouse serum albumin [30]) of 0.244 µM and a Kd (cynomolgus serum albumin [31]) of 2.6 µM. For the same binder, the Kd (human serum albumin [32]) was 0.136 µM.
